Measured values from PMC2680549.

Molecular target: N-terminal domain of Bag2 (Bag2-NTD)
Assay: SEC

Chain of N-terminal domain of Bag2 (Bag2-NTD) (domain or fragment) (Q91YN9 104-194): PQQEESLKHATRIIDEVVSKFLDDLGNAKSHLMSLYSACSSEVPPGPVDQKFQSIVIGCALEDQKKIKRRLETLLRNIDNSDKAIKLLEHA

stoichiometry N: 2
Substance: N-terminal domain of Bag2 (Bag2-NTD) (domain or fragment)
